In patent US8785185B2, “Differentiation of human embryonic stem cells” (Janssen Biotech, Inc., priority 2009, dated 2014):

What was measured:
Format in all cases: cell-based
[1] = test system: human embryonic stem cell line H1; assay: Real-time PCR of pancreatic markers at stage 3 day 4, Treatments 1-3 (Table 1); conditions: normalized to treatment 1, stage 3 treatment for four days
Description: (§1) RPMI medium (Catalogue #22400, Invitrogen, Ca) supplemented with 2% BSA (Catalog #152401, MP Biomedical, Ohio), and 100 ng/ml activin A (R&D Systems, MN) plus 20 ng/ml WNT-3a (Catalog #1324-WN-002, R&D Systems, MN) plus 8 ng/ml of bFGF (Catalog #100-18B, PeproTech, NJ), for one day followed by treatment with RPMI media supplemented with 2% BSA and 100 ng/ml activin A plus 8 ng/ml of bFGF for an additional two days (Stage 1), then • b. DMEM/F12 (Catalogue #11330, Invitrogen, Ca)+2% BSA+50 ng/ml FGF7 for three days (Stage 2), then • c. Either Treatment 1: DMEM (high glucose)+1% B27 (Invitrogen, CA)+50 ng/ml FGF7, 0.25 μM Cyclopamine-KAAD, 2 μM retinoic acid (RA) and 100 ng/ml of Noggin for four days, or • d. Treatment 2: DMEM (high glucose)+1% B27 (Invitrogen, CA)+50 ng/ml FGF7, 0.25 μM Cyclopamine-KAAD, 2 μM retinoic acid (RA), 100 ng/ml of Noggin, 20 ng/ml activin A, for four days, or • e. Treatment 3: DMEM (high glucose)+1% B27 (Invitrogen, CA)+50 ng/ml FGF7, 0.25 μM Cyclopamine-KAAD, 2 μM retinoic acid (RA), 100 ng/ml of Noggin, 1 μM ALK5 inhibitor II, for four days.
(§2) Cultures were sampled in duplicate on stage 3 day 4, and analyzed for expression of pancreatic markers using real-time PCR. Cultures also were fixed in parallel for immunofluorescence analysis.

[2] = test system: human embryonic stem cell line H1; assay: Immunofluorescence analysis of marker expression at stage 3 day 4 (FIG. 2, FIG. 3)
Description: as §1, §2
Treatment 1 (FGF7, retinoic acid and Noggin) induced the expression of NKX6.1 and NGN3.
This is in contrast with PDX1 expressing cells generated by using DMEM/F12 supplemented with 1% B27 (Invitrogen, CA)+50 ng/ml FGF7, 0.25 μM Cyclopamine-KAAD, 2 μM retinoic acid (RA), 100 ng/ml of Noggin, 20 ng/ml activin A, wherein most PDX1 expressing cells also expressed CDX2.

[3] = test system: human embryonic stem cell line H1; assay: Real-time PCR of pancreatic markers at stage 3 day 4, activin A 20 or 50 ng/ml added at stage 3 (FIG. 1); conditions: 20 or 50 ng/ml activin A with FGF7, cyclopamine-KAAD, retinoic acid, Noggin
Description: Briefly, cells of the human embryonic stem cell line H1 were cultured on MATRIGEL™ (1:30 dilution) coated dishes and RPMI medium supplemented with 2% BSA, 100 ng/ml activin A, 20 ng/ml WNT-3a, 8 ng/ml of bFGF for one day, followed by treatment with RPMI media supplemented with 2% BSA, 100 ng/ml activin A, 8 ng/ml of bFGF for an additional two days (Stage 1), then • a. DMEM/F12+2% BSA+50 ng/ml FGF7+0.25 μM Cyclopamine-KAAD for three days (Stage 2), then • b. DMEM-High glucose+1% B27+50 ng/ml FGF7+0.25 μM Cyclopamine-KAAD+2 μM Retinoic acid (RA)+100 ng/ml of Noggin+20 ng/ml activin A or 50 ng/ml activin A for four days (Stage 3).
As a control, separate populations of cells were treated with DMEM High glucose, supplemented with 1% B27, 50 ng/ml FGF7, 0.25 μM Cyclopamine-KAAD, 2 μM retinoic acid (RA), and 100 ng/ml of Noggin.
Cultures were sampled in duplicate on stage 3 day 4, and analyzed for expression of pancreatic markers using real-time PCR.
A down-regulation of NGN3 expression was also observed in the cells at stage 3 day 4.

Molecule	relative expression level of NKX6.1 [1]	relative expression level of PDX1 [1]	expression of NGN3 / number of NGN3 expressing cells [2]	NGN3 expression [3]	NKX6.1 expression ([3]; real-time PCR, versus cells receiving no activin A)	expression of NKX6.1 / number of NKX6.1 expressing cells [2]
Cc1cccc(-c2[nH]ncc2-c2ccc3ncccc3n2)n1 [ALK5 inhibitor II]	decrease	No significant impact	significantly increased	–	–	–
activin A (protein, UniProt P08476 311-426, looked up, Inhibin beta A chain, a member of the TGF-β superfamily (R&D Systems)) Inhibin beta A chain: GLECDGKVNICCKKQFFVSFKDIGWNDWIIAPSGYHANYCEGECPSHIAGTSGSSLSFHSTVINHYRMRGHSPFANLKSCCVPTKLRPMSMLYYDDGQNIIKKDIQNMIVEECGCS	–	–	blocked	down-regulation	increase	significantly increased
